The source of these data is article PMC10917881, “Biochemical characterization of L-asparaginase isoforms from Rhizobium etli—the boosting effect of zinc” (Frontiers in Chemistry, 2024).

Assay [1] deals with Rhizobium etli L-asparaginase ReAIV (constitutive, thermostable), wild type (Rhizobium etli). Put plainly: mass photometry; Refeyn One mass photometer; protein diluted to 20-50 nM; buffers 50 mM Tris-HCl pH 8.0 or 30 mM carbonate pH 9.0; absence or presence of Zn2+ and/or Mg2+; dimer to monomers.
The target of assay [2] is Rhizobium etli L-asparaginase ReAV (inducible, thermolabile), wild type (Rhizobium etli). Described as above.

Usually stoichiometry N stands for a count of units in the complex or per binding partner. “Rhizobium etli L-asparaginase ReAIV (constitutive, thermostable), wild type (enzyme)”: the stoichiometry N in assay [1] came out at 2. In the case of “Rhizobium etli L-asparaginase ReAV (inducible, thermolabile), wild type (enzyme)”, the stoichiometry N in assay [2] was found to be 2.
